T1: Est3-(Flag)3 (S. cerevisiae, UniProt Q03096 1-181)
T1 sequence (looked up): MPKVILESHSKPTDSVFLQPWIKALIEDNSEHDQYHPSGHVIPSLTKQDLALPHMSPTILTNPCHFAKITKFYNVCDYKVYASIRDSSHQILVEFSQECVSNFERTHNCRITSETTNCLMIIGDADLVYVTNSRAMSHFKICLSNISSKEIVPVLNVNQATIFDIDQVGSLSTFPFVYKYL


How the values were obtained:
[1] = target: T1, Est3-(Flag)3; assay: co-IP
[2] = target: T1, Est3-(Flag)3; assay: co-IP; remark: listed apart in the source

| fold reduction in the tlc1-59 strain against the TLC1 strain [1] | Est1:Est2 ratio in the anti-Est3 immunoprecipitate [2] | fold higher co-precipitation in G2/M than in G1 [2] | fold increase in G2/M against G1 (quaternary complex) [2] | Binder |
| --- | --- | --- | --- | --- |
| ~20 fold | ~4 Est1 per Est2 | – | – | Est1-(myc)12 (natural protein, S. cerevisiae, UniProt P17214 1-699, looked up) MDNEEVNEECMRLFFKNARAHLDKHLTSRLTCDENAYITFRCFLDGIHRKSTRFLEELLLKQENMYHNNNYERINDSVIPLVLKLLWLQIHEPTLQWFEHWFHDIMRLSNRRKFRVFRIFQKKMIQFFKITHRYYYDIIEHLCAKYDMNSVISNALFAKLNLMQYTDGLSTHEKIILNTSNPLTFSIVISLQRCVINLGSTHFYKTLLNKPSNKPKSVEGFEKSIRYLNIASLYLPAVGDTYFQRAKIYLITGKFSLYFFELVRGALVRIPSKCALNNLKDFILTPDFPERRRLMKKLAILVSKDLKGEKSFFEGQIVLQFLSIVEHTLVPQSWNASRASNCWLLKEHLQMAALKYHSGNINVILENLAATMGSFDLMFTTRKSKEQKNKLKYADLSERQVFFLDLSFDFIANIIDVVIKPSWQKNMEDFRYLAIIRLLMCWIKSYRSILQYTHRHRKFCTSFALLLNDLINSPLNCSGNIYSHRPKRSYLFREDIIFREFSCINFALTDFNDDYVYDSPDMINNIIGCPTLTKVLSPKEECVLRIRSIIFSGMKFLEKNDTGVIWNASKYKFDLISPNIKIKRQIALSEISSKINVKTQQERVVSSRKVEAKRDEQQRKRAGKIAVTELEKQFANVRRTKKLSPLPEKDGVSSELVKHAASRGRKTITGPLSSDFLSYPDEAIDADEDITVQVPDTPT |
| – | – | ~20 fold | ~20 fold | (myc)12-Est2 (natural protein, S. cerevisiae, UniProt Q06163 1-884, looked up) MKILFEFIQDKLDIDLQTNSTYKENLKCGHFNGLDEILTTCFALPNSRKIALPCLPGDLSHKAVIDHCIIYLLTGELYNNVLTFGYKIARNEDVNNSLFCHSANVNVTLLKGAAWKMFHSLVGTYAFVDLLINYTVIQFNGQFFTQIVGNRCNEPHLPPKWAQRSSSSSATAAQIKQLTEPVTNKQFLHKLNINSSSFFPYSKILPSSSSIKKLTDLREAIFPTNLVKIPQRLKVRINLTLQKLLKRHKRLNYVSILNSICPPLEGTVLDLSHLSRQSPKERVLKFIIVILQKLLPQEMFGSKKNKGKIIKNLNLLLSLPLNGYLPFDSLLKKLRLKDFRWLFISDIWFTKHNFENLNQLAICFISWLFRQLIPKIIQTFFYCTEISSTVTIVYFRHDTWNKLITPFIVEYFKTYLVENNVCRNHNSYTLSNFNHSKMRIIPKKSNNEFRIIAIPCRGADEEEFTIYKENHKNAIQPTQKILEYLRNKRPTSFTKIYSPTQIADRIKEFKQRLLKKFNNVLPELYFMKFDVKSCYDSIPRMECMRILKDALKNENGFFVRSQYFFNTNTGVLKLFNVVNASRVPKPYELYIDNVRTVHLSNQDVINVVEMEIFKTALWVEDKCYIREDGLFQGSSLSAPIVDLVYDDLLEFYSEFKASPSQDTLILKLADDFLIISTDQQQVINIKKLAMGGFQKYNAKANRDKILAVSSQSDDDTVIQFCAMHIFVKELEVWKHSSTMNNFHIRSKSSKGIFRSLIALFNTRISYKTIDTNLNSTNTVLMQIDHVVKNISECYKSAFKDLSINVTQNMQFHSFLQRIIEMTVSGCPITKCDPLIEYEVRFTILNGFLESLSSNTSKFKDNIILLRKEIQHLQAYIYIYIHIVN |
